Data published in the Human Domainome abundance scans (Beltran et al. 2025).
± gives the uncertainty stated by the source.

B1: Gamma-crystallin D, residues 90 to 170; numbered along this chain, P07320 (parent)
chain: IRLYEREDYRGQMIEFTEDCSCLQDRFRFNEIHSLNVLEGSWVLYELSNYRGRQYLLMPGDYRRYQDWGATNARVGSLRRV

Variants of: B1
Assay: abundance fitness (aPCA) (normalised: wild type 0, dead -1); higher = more abundant; growth selection in yeast, the domain comes from the species named
Settings: Homo sapiens

Variant | abundance fitness
G11S | -0.1 ± 0.083
F27C | -0.031 ± 0.12
F27E | 0.065 ± 0.064
F27T | -0.09 ± 0.15
F27K | -0.009 ± 0.15
F29S | 0.093 ± 0.082
F29Y | 0.161 ± 0.21
A70D | 0.18 ± 0.13
A70M | 0.109 ± 0.14
A70E | 0.165 ± 0.1
F16A | -0.1 ± 0.081
L35I | 0.231 ± 0.38
L35A | 0.024 ± 0.066
L35G | 0.035 ± 0.087
L35E | -1.08 ± 0.33
L35P | -1 ± 0.21
G40Q | -0.053 ± 0.059
G40K | -0.187 ± 0.11
I1A | 0.139 ± 0.24
Q54W | -0.39 ± 0.11
E46T | -0.047 ± 0.099
T17V | 0.005 ± 0.064
T17I | 0.073 ± 0.11
T17F | 0.08 ± 0.14

Variant | abundance fitness
L57D | -0.971 ± 0.39
L57C | -0.029 ± 0.13
L38T | -0.055 ± 0.1
L38S | -0.065 ± 0.067
L38G | 0.016 ± 0.057
V75W | -0.131 ± 0.11
V75E | -1.04 ± 0.3
D25I | -0.052 ± 0.19
D25T | -0.168 ± 0.31
D25V | -0.051 ± 0.074
D25A | 0.005 ± 0.13
N30W | -0.036 ± 0.087
I14N | 0.056 ± 0.21
I14F | 0.019 ± 0.26
I14K | -0.092 ± 0.13
I14W | -0.09 ± 0.11
G69E | 0.193 ± 0.075
G69P | -0.164 ± 0.081
G69C | 0.084 ± 0.15
G69R | 0.141 ± 0.079
S41L | -0.363 ± 0.1
S41I | -0.161 ± 0.27
S41F | -0.384 ± 0.14
S41N | -0.175 ± 0.23

Variant | abundance fitness
S41D | -0.007 ± 0.14
S41R | 0.021 ± 0.077
S41Q | 0.022 ± 0.059
E18V | -0.004 ± 0.07
E18M | -0.005 ± 0.15
E18H | 0.027 ± 0.31
Y62P | -0.919 ± 0.17
Y62K | 0.11 ± 0.16
Y62I | -0.061 ± 0.3
R63Q | 0.072 ± 0.15
L44W | -0.414 ± 0.1
L44R | -1.17 ± 0.18
L44C | -0.093 ± 0.12
Q66R | -0.06 ± 0.077
Q66S | 0.018 ± 0.095
V37A | 0.01 ± 0.076
V37T | 0.091 ± 0.1
N72K | -0.065 ± 0.12
N72C | -0.078 ± 0.12
N72D | -0.016 ± 0.17
W68N | -0.117 ± 0.19
A73Y | 0.003 ± 0.13
A73N | 0.05 ± 0.23
R74S | -0.011 ± 0.078

Variant | abundance fitness
R26T | -0.048 ± 0.11
R26M | -0.007 ± 0.11
R26S | 0.05 ± 0.09
R53W | -0.266 ± 0.11
W42L | -0.201 ± 0.061
L78C | 0.157 ± 0.13
C22N | -0.149 ± 0.17
C22H | -0.07 ± 0.24
C22G | 0.019 ± 0.053
C22E | 0.056 ± 0.079
E15D | -0.166 ± 0.14
Y9S | 0.175 ± 0.078
Y9C | 0.194 ± 0.13
Y9E | 0.082 ± 0.073
Q12S | -0.008 ± 0.079
Q12L | -0.173 ± 0.075
P59N | -0.027 ± 0.15
P59Y | -0.222 ± 0.34
P59E | -0.005 ± 0.1
P59W | -0.083 ± 0.12
C20E | 0.135 ± 0.095
C20I | -0.047 ± 0.27
C20W | 0.056 ± 0.094
M58E | 0.043 ± 0.11

Variant | abundance fitness
M58I | -0.047 ± 0.13
G76W | -0.441 ± 0.14
G76M | 0.111 ± 0.16
G76C | -0.287 ± 0.13
G76K | -0.112 ± 0.14
G76Y | -0.221 ± 0.16
L56S | 0.14 ± 0.071
D67Q | -0.08 ± 0.092
D67W | -0.064 ± 0.15
D67Y | -0.125 ± 0.3
I32M | 0.02 ± 0.28
I32S | -0.007 ± 0.08
I32K | -0.235 ± 0.16
I32T | -0.037 ± 0.1
I32D | -0.346 ± 0.39
R6H | -0.124 ± 0.27
G52M | -0.57 ± 0.23
G52S | -0.389 ± 0.08
G52V | -0.919 ± 0.13
M13F | 0.009 ± 0.17
M13S | 0.061 ± 0.14
M13T | -0.122 ± 0.094
R79M | 0.086 ± 0.22
Y45L | -0.708 ± 0.13

Variant | abundance fitness
D19K | -0.144 ± 0.18
D19N | -0.058 ± 0.29
D19Q | 0.041 ± 0.16
R10Q | -0.069 ± 0.14
R10I | 0.074 ± 0.21
R10F | 0.025 ± 0.098
R10P | -1.07 ± 0.19
E39A | 0.074 ± 0.079
L47P | -0.989 ± 0.18
L47K | -0.221 ± 0.38
R28A | -0.005 ± 0.11
Q24V | -0.086 ± 0.062
Q24R | 0.013 ± 0.063
Q24Y | -0.045 ± 0.27
Y55C | -0.061 ± 0.5
Y55W | -0.001 ± 0.11
D61I | -0.332 ± 0.15
D61E | 0.043 ± 0.11
E7A | 0.001 ± 0.083
E7C | -0.333 ± 0.16
E7S | 0.069 ± 0.14
S48I | -0.152 ± 0.15
S21P | -0.215 ± 0.14
S21V | -0.044 ± 0.078

Variant | abundance fitness
V43F | -0.125 ± 0.14
V43Y | -0.229 ± 0.18
V43P | -0.844 ± 0.2
V43A | -0.059 ± 0.11
V43E | 0.204 ± 0.13
V43G | -0.026 ± 0.064
S34W | -0.828 ± 0.21
S34Y | -0.893 ± 0.19
Y65T | -0.076 ± 0.16
N36W | 0.076 ± 0.061
N36I | -0.05 ± 0.14
N36K | -0.023 ± 0.17
N36T | -0.153 ± 0.12
G60P | -0.702 ± 0.17
H33C | -0.01 ± 0.13
E5V | 0.053 ± 0.084
E5Q | -0.013 ± 0.058
E31L | 0.054 ± 0.085
E31K | -0.004 ± 0.14
Y50G | -0.231 ± 0.059
D8T | -0.016 ± 0.096
D8H | -0.086 ± 0.17
D8C | 0.05 ± 0.13
